Laboratory results from patent US20180273595A1.

B1: RI-EIP1 retroinverso peptidomimetic (peptide)
peptide: GRRRQRRKKRGGTFLYPPL
modifications: not checked
B2: RI-EIP2 retroinverso peptidomimetic (peptide)
peptide: GRRRQRRKKRGGPLSGFSL
modifications: not checked

Molecular target: T1, recombinant His-tagged full-length ERG, P11308
T1 chain: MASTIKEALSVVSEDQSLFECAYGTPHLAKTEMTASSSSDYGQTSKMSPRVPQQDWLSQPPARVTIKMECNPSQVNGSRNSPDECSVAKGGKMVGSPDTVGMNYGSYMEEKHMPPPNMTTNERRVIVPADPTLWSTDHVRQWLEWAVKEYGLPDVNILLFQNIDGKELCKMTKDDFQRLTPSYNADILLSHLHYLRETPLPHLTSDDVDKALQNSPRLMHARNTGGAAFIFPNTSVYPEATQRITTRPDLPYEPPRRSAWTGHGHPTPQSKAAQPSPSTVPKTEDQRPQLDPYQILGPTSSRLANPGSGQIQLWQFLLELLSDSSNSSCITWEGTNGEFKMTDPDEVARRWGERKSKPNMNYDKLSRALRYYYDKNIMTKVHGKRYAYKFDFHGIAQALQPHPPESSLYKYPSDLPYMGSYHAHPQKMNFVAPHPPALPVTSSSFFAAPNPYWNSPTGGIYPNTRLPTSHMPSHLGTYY
Assay: OctetRED BLI

Binder	Kd [nM]
B1	940
B2	1280
